Assay [1] concerns the target T1, human chemokine (C-C motif) receptor 8 (CCR8) protein (human, UniProt P51685 1-355).
T1 construct: whole, on cells; also called human CCR8
Briefly: cell binding, CCR8-expressing CHO-K1 cells, curve fit. Also noted: LogEC50: unit not given here.

Assay [2] has as its target T1, human chemokine (C-C motif) receptor 8 …. Briefly: flow cytometry, CCR8-expressing HEK293 cells. Summed up:
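Cell binding was measured by flow cytometry on HEK293 cells overexpressing human CCR8, alongside parental HEK293 cells. Antibodies were titrated from 200 nM in 4-fold dilutions over 12 points and incubated with the cells at 4° C for 60 minutes. Cells were washed twice with FACS buffer, stained with Alexa Fluor 647 goat anti-human IgG at 4° C for 60 minutes, washed twice and analysed. The read-out is binding EC50.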
A general note: Flow cytometry measures light scatter and fluorescence of single cells or particles in a stream.

The target is the same in assay [3]. Briefly: cell-based or functional assay.
Assay [4] shares this target. Briefly: cell binding, CCR8-expressing U2OS cells, curve fit. Further details: LogEC50: unit not given here.
For assay [5] the target is unchanged. Kind of assay: flow cytometry, low-CCR8-expressing Jurkat cells. From the text: The cells used were Jurkat engineering cells (Jurkat/H_CCR8).
Assay [6] has the same target. Briefly: flow cytometry, high-CCR8-expressing U2OS cells. From the text:
The cells used were U2OS (U2OS/H_CCR8).

B1: 137-H3L2 (LM-108) (antibody, V domains shown)
VH: EVQLVESGGGLVQPGGSLKLSCAASGFTFNTYAMNWVRQASGKGLEWVARIRSKANNYATYYADSVKDRFTISRDDSKNTLYLQMNNLKTEDTAVYYCVRDRSRGEDYAMDYWGQGTLVTVSS
VL: DIVMTQSPLSLPVTPGEPASISCRSSKSLLHSNANTYLYWFLQKPGQSPQLLIYRMSNLASGVPDRFSGSGSGTAFTLKISRVEAEDVGVYYCMQHLEYPFTFGQGTKLEIK
notes: Humanized 137D1H10; Detected with anti-human IgG
Usually EC50 stands for the concentration that produces a half-maximal response. Turning to B1, in assay [1], the Bottom came to 4260, the LogEC50 was -0.684, the Span was found to be 28900 and the Top was 33200. The molecule also came in with an EC50 in assay [2] of 1030 pM. The “ADCC EC50 with primary human PBMCs (cytotoxicity detection)” value in assay [3] came to 2 pM. In assay [4], this molecule gave a Bottom of 2060, a LogEC50 of -0.69, a Span of 30200 and a Top of 32300. This molecule returned a concentration for a half-maximal effect (EC50) in assay [5] of 212 pM. In addition, in assay [6], a half-maximal effect (EC50) was put at 250 pM.

The values above are taken from patent US20220195057A1 (LANOVA MEDICINES, published 2022).
